Reference: the supplement of paper PMC9170038

What follows are sequences tested on MS2 coat protein (assay: apparent KD of MS2 coat protein, switch OFF state (with FMN for OFF switches, without FMN for ON switches); designed switch direction (-1 OFF switch, 1 ON switch): -1; higher = weaker reporter binding). Settings: FMN input: 0 or 200 uM; Eterna round: R93 (includes R88 designs).
Method in brief: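 Titrations with SNAP-549-labelled MS2 coat protein ran in twofold steps from 0.7 or 1.5 nM to 3 µM, each step taking 0.8–1.5 h at the start and 10–20 min toward the end. The targets were designed RNA switches transcribed on-chip from Illumina sequencing clusters, held in 100 mM Tris-HCl pH 7.5, 80 mM KCl, 4 mM MgCl2, without or with constant ligand. Apparent KD was taken per design as the median of normalised cluster binding-curve fits.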
“AAACGUUGAGGAUAUACAAAAGGGUAUAAAUCAAAAAAAACACAUGAGGAUCACCCAUGUAGAAGGCAACGAAA” was tested, and the “apparent KD of MS2 coat protein” value was 65.6 nM.
With “AAAAAACAUGAGGAUCACCCAUGUGAGGAUAUGCAAAAAUAAAAUAAAAUAAUAAAAAGCAGAAGGCACAAAAA [Amethyst 76]” the “apparent KD of MS2 coat protein” value was 26.4 nM.
In the case of “AAAAAGCUAGGAUAUACGAAAAAAAAGGGUAAAAAAUAAAAACAUGAGGAUCACCCAUGUAGAAGGAGCAAAAA [Mat - Exclusion 2 - Tesla mod - D36]”, the “apparent KD of MS2 coat protein” value is reported as 77.9 nM.
With “AAGAAGGCAGGAUAUACAUGAAAGAAAGAAAAGAAAAGAAAACAUGAGGAUCACCCAUGUAGAAGGGCCAAGAA [EteRNA is fun!]” the “apparent KD of MS2 coat protein” value was 109 nM.
With “AAAAAGUGAGGAUAUACAUGAGAAAAAAAAAUGUAAAAAAAACAUGAGGAUCACCCAUGUAGAAGGCACAAAAA [Ecxl-II]” the “apparent KD of MS2 coat protein” value was 83.5 nM.
For “AAAACACAUGAGGAUCACCCAUGUGAGGAUAUGAACGAAAAUAAAUAAAAAUAAAAGUUCAGAAGGCACAAAAA [66%, Wbt, 11]”, the “apparent KD of MS2 coat protein” value was 36.1 nM.
“CUCUAGUCAGGAUAUCGAAGAAAAGAAGAGAAAGAAAAGAACGAGAAGGGACAUGAGGAUCACCCAUGUAAGAA [EteRNA is fun!]” was tested, and the “apparent KD of MS2 coat protein” value was 39.2 nM.
With “AGAAAACAUGAGGAUCACCCAUGUCAGGAUAUGUAAAAGAAAAGAAAAGAAAGAAGAAACAGAAGGGACAAGAA [Seth-Peribsen]” the “apparent KD of MS2 coat protein” value was 53.7 nM.
For “AGUGAGUGAGGAUAUCACUGAACAACAAAACAAAUAACGAGUGAGAAGGCACAUGAGGAUCACCCAUGUACACA [May 67]”, the “apparent KD of MS2 coat protein” value was 19.2 nM.
For “GACCAGUGAGGAUAUGUAAAAAAAAGAGAAGAGAAGAGAGAACAGAAGGCACAUGAGGAUCACCCAUGUAGGGA [Default title]”, the “apparent KD of MS2 coat protein” value was 170 nM.
“AAAAAGUGAGGAUAUACGGUGUGGAGUAGACACAACCAGGCGUAGAAGGCACAUGAGGAUCACCCAUGUCCAAA [EX4 Malc#15]” was tested, and the “apparent KD of MS2 coat protein” value was 29.1 nM.
With “AGCUAGUCAGGAUAUACGAACAUGUCAAAAGACGUAAGGGAACAUGAGGAUCACCCAUGUAGAAGGGACUCGCA [Diamond 51]” the “apparent KD of MS2 coat protein” value was 98.5 nM.
For “AGAAAGUGAGGAUAUACAUGAGGAUCACCCAUGUAGAACGAGAGUUAUAAAAAUGGAAGUAGAAGGCGCAAAAG [water's exclusion 3 2nd]”, the “apparent KD of MS2 coat protein” value was 34.8 nM.
“AAAGGGUCAGGAUAUGCACGAACAACAAAACAAAUAACGAUGCAGAAGGGACAUGAGGAUCACCCAUGUAUAAA [May 75]” was tested, and the “apparent KD of MS2 coat protein” value was 52.1 nM.
For “AAAGGGCGAGGAUAUACAUGAGGAUCACCCAUGUAAAAAACAUAAUAAAAGAAUUUAUGUAGAAGGCGCCCAAA [Ruby 60]”, the “apparent KD of MS2 coat protein” value was 14.4 nM.
In the case of “CUCUUGUCAGGAUAUGUAAGAAAAGAAAAGAAAGAAAAGAAACAGAAGGGACAUGAGGAUCACCCAUGUAAGAA [EteRNA is fun!]”, the “apparent KD of MS2 coat protein” value is reported as 53.1 nM.
With “ACUAAUGAAGGAUAUACAAACAACAAACACACAACACACACACAUGAGGAUCACCCAUGUAGAAGGUCAAACAU [JR_Exc002_Sub1203]” the “apparent KD of MS2 coat protein” value was 15.6 nM.
In the case of “AAAAAACAUGAGGAUCACCCAUGUAAGGAUAUGUAAAAUAAAAGAAAAAUAAAGAAAAGCAGAAGGUACAAGAA [JL wbt mod 18]”, the “apparent KD of MS2 coat protein” value is reported as 23.4 nM.
“AAGAACGGAGGAUAUACAUGAGGAUCACCCAUGUAAAAGAAAGAGGGAAAAGAGAAAAGUAGAAGGCCGAAGAA [Haaibre Alexander IV]” was tested, and the “apparent KD of MS2 coat protein” value was 60.3 nM.
With “AAGAACAUAGGAUAUACAAGGAAGAAAGAAAAGAAAAGAAAACAUGAGGAUCACCCAUGUAGAAGGAUGUAGAA [EteRNA is fun!]” the “apparent KD of MS2 coat protein” value was 24.8 nM.
“AAAAACUCAGGAUAUACAUGAGGAUCACCCAUGUAAAAAAAAAAAAAGGGAAAAAAAAGUAGAAGGGAGAAAAA [Semenre]” was tested, and the “apparent KD of MS2 coat protein” value was 37.2 nM.
“CUCUUGUGAGGAUAUCAAAGAAAAGAAAAGAAAGAAAAGAAUGAGAAGGCACAUGAGGAUCACCCAUGUAAGAA [EteRNA is fun!]” was tested, and the “apparent KD of MS2 coat protein” value was 59.5 nM.
“AUAGUACAUGAGGAUCACCCAUGUCAGGAUAUUCGAAAUGAAAAAAAAAAAAAAUGAAGGAGAAGGGACUAUAA [EX1 Malc#11]” was tested, and the “apparent KD of MS2 coat protein” value was 72 nM.
With “AGAAAGCUAGGAUAUACCUGGAGGGUUCUAAAUGAAAUAAAACAUGAGGAUCACCCAUGUAGAAGGAGCCCGAA [Sobire]” the “apparent KD of MS2 coat protein” value was 16.6 nM.
“AAAAAAGGAGGAUAUACGUACAUGUCAAAAGACGUGAAGGGACAUGAGGAUCACCCAUGUAGAAGGUUUAAAAA [JL Wide Open 31]” was tested, and the “apparent KD of MS2 coat protein” value was 18.3 nM.
In the case of “AACAAGUCAGGAUAUGUUAAAGGUUACGAAAGGGAUAAAGGGCAGAAGGGACAUGAGGAUCACCCAUGUAAUAA [And All that Jazx]”, the “apparent KD of MS2 coat protein” value is reported as 38.2 nM.
“AACAAACAUGAGGAUCACCCAUGUCAGGAUAUGCAAAUAACAAACAACAAACAACAAAGCAGAAGGGACGACAA [Mat - Exclusion 1 - Eli mod - D51]” was tested, and the “apparent KD of MS2 coat protein” value was 25.6 nM.
With “GAAAAGUCAGGAUAUGCAGAUAAAAAAACGAAAAAAAAUCUGCAGAAGGGACAUGAGGAUCACCCAUGUAAAAG [Mat - Exclusion 4 - Mayanna - D110]” the “apparent KD of MS2 coat protein” value was 54.2 nM.
In the case of “AAGAAACUAGGAUAUACAAGGAAGAAAGAAAAGAAAAGAAAACAUGAGGAUCACCCAUGUAGAAGGAGUUAGAA [EteRNA is fun!]”, the “apparent KD of MS2 coat protein” value is reported as 31.3 nM.
In the case of “AAAAAUGGAGGAUAUACAUGAGGAUCACCCAUGUGUAACUAUACUAAGCACUCCUCACGUAGAAGGCCAAAAAA [Gilly Gone Silly 13 - Jieux - Exclusion 3]”, the “apparent KD of MS2 coat protein” value is reported as 113 nM.
For “GAAAAUUGAGGAUAUACGAACAUGUCAAAAGACGUGAAGGGACAUGAGGAUCACCCAUGUAGAAGGCGAAAGAG [Mat - Exclusion 2 - JL mod - D92]”, the “apparent KD of MS2 coat protein” value was 14.1 nM.
“AAAAAGGUAGGAUAUACAUGAGGAUCACCCAUGUAAAAAAAUGGAGAAAAAAACAAUUGUAGAAGGGCCAAAAA [Ex3 Malc#7]” was tested, and the “apparent KD of MS2 coat protein” value was 61.6 nM.
With “AACAGUACAGGAUAUACAUGAGGAUCACCCAUGUGAACUUCAAGUGCCGUAGCACGAAGUAGAAGGGUACUGGA” the “apparent KD of MS2 coat protein” value was 497 nM.
In the case of “GCUUGCCAAGGAUAUACAUGAGGAUCACCCAUGUGAGAGAAAAAAGUGAGAAAGAAAAGUAGAAGGUGGUGAGG [salish99-ex3-110]”, the “apparent KD of MS2 coat protein” value is reported as 120 nM.
With “GGAAAACAUGAGGAUCACCCAUGUAAGGAUAUGCAAAAAAAAAAAAGGAUAUAGAAGGGCAGAAGGUACAAAGG [salish99-ex1-30]” the “apparent KD of MS2 coat protein” value was 36.1 nM.
